# In patent publication US20160177307:
# Columns and labels:
# PDGF-AB = PDGF-AB (UniProt P04085+P01127); experiment: filter
# [1] = target: PDGF-BB (platelet-derived growth factor BB) (Homo sapiens) (UniProt P01127); experiment: filter
# [2] = test system: T1, VEGF-121 (Homo sapiens), P15692-9; experiment: filter
# T1 sequence: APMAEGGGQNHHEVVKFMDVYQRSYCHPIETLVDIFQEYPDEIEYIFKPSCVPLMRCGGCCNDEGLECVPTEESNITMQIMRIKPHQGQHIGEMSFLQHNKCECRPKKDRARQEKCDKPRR
# [3] = test system: T2, VEGF-164 (Rattus norvegicus), P16612-2; experiment: filter; conditions: P=Nap-dU
# T2 sequence: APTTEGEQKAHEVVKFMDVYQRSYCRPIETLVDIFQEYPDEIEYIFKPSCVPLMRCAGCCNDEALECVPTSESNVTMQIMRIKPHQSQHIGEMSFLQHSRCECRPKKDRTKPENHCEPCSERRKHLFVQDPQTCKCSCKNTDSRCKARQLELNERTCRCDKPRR
# [4] = test system: T3, VEGF-165 (Homo sapiens), P15692-4; experiment: filter
# T3 sequence: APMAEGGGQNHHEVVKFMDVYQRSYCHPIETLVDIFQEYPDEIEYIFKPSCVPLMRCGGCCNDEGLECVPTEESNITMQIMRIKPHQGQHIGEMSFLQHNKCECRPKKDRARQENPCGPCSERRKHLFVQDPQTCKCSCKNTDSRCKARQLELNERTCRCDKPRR
# rVEGF164, P16612-2 = test system: T4, rVEGF164, P16612-2; experiment: filter; conditions: rest DNA, SB18T, 37 C
# T4 sequence: T2 sequence
# [5] = test system: T1, VEGF-121 (Homo sapiens), P15692-9; experiment: cell_activity; conditions: NapdU at P, VEGFR2 phosphorylation, HUVEC
# [6] = test system: T1, VEGF-121 (Homo sapiens), P15692-9; experiment: competition; conditions: Nap-dU, 2'-OMe; head-to-tail dimer, no linker; VEGF isoform not given
# [7] = target: PDGF-BB (platelet-derived growth factor BB) (Homo sapiens) (UniProt P01127); experiment: cell_activity
# [8] = target: PDGF-BB (platelet-derived growth factor BB) (Homo sapiens) (UniProt P01127); experiment: competition
# [9] = all P are NapdU, rest DNA, SB18T, 37 C
# [10] = NapdU at 6,7,12,15,16,18,23,24,25,29, rest DNA, SB18T, 37 C
# Chain of PDGF-BB (platelet-derived growth factor BB) (Homo sapiens) (P01127 82-190): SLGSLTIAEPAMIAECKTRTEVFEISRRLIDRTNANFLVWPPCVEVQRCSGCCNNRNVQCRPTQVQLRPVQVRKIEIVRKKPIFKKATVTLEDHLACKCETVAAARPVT
# Chain of PDGF-AB (P01127 82-190, chain 2 of 2, other chains not shown): as the sequence (P01127 82-190) above
sequence,measurement,setting,value
AGCCGTTCAAGTGCTTGTAGGATTTAAATGG [4867-31_51],Kd,PDGF-AB; P=Nap-dU,14.8 nM
same,Kd,"[1]; all P are NapdU, rest DNA, specificity control",126 nM
same,Kd,"[2]; all P are NapdU, rest DNA, SB18T, 37 C, Table 18 gives 728 pM",0.2 nM
same,Kd,[3],0.074 nM
same,Kd,"[4]; P=Nap-dU, VEGF",0.196 nM
same,Kd,[4]; [9],0.11 nM
AGCCGTTCAAGTGCTTGTAGGATTTAAATGGA [4867-31_43],Kd,[2]; [10],0.29 nM
same,Kd,[4]; [10],0.05 nM
same,Kd,"rVEGF164, P16612-2; NapdU at 6,7,12,15,16,18,23,24,25,29",0.05 nM
same,IC50,[5],2.2 nM
CAGCCGTTCAAGTGCTTGTAGGATTTAAA [4867-31_47],Kd,"rVEGF164, P16612-2; all P are NapdU",83 nM
CAGCCGTTCAAGTGCTTGTAGGATTTAAAT [4867-31_46],Kd,[4]; [9],5.9 nM
same,Kd,"rVEGF164, P16612-2; all P are NapdU",9.6 nM
CAGCCGTTCAAGTGCTTGTAGGATTTAAATGGA [4867-31_42],Kd,[2]; [9],0.2 nM
same,Kd,[4]; [9],0.071 nM
same,Kd,"rVEGF164, P16612-2; all P are NapdU",0.05 nM
CCGTTCAAGTGCTTGTAGGATTTAAATGG [4867-31_192],Kd,"[1]; NapdU at 4,5,10,13,14,16,21,23,27, 2'-OMe at C6,G9,C12,G15,A17,G18,G28,G29 and 2'-OMe-NapU22, 3'-inverted dT in Tables 26-27, specificity control, off-target PDGF-BB",57 nM
same,Kd,"[2]; NapdU at 4,5,10,13,14,16,21,23,27, 2'-OMe at C6,G9,C12,G15,A17,G18,G28,G29 and 2'-OMe-NapU22, 3'-inverted dT in Tables 26-27, 3'-idT, Table 27 gives 3.1E-11, Table 21 2.3E-11",0.011 nM
same,Kd,"[4]; NapdU at 4,5,10,13,14,16,21,23,27, 2'-OMe at C6,G9,C12,G15,A17,G18,G28,G29 and 2'-OMe-NapU22, 3'-inverted dT in Tables 26-27, 5'-OH form",0.041 nM
same,IC50,"[5]; 2'-OMe 6,9,12,15,17,18,22,28,29",2.1 nM
CCGTTCAAGTGCTTGTAGGATTTAAATGGCCGTTCAAGTGCTTGTAGGATTTAAATGG [4867-31_395],Ki,[6],0.0068 nM
CGACAGCATGTATGCACATCT [5169-4_26],Kd,"[1]; NapdU (5-(N-naphthylmethylcarboxamide)-2'-deoxyuridine) at 9,11,13,19,21, rest DNA, SB18T, 37 C",0.017 nM
same,IC50,"[7]; NapdU (5-(N-naphthylmethylcarboxamide)-2'-deoxyuridine) at 9,11,13,19,21, rest DNA, inhibition of PDGFRbeta phosphorylation",1.6 nM
CGACAGCATGTATGCACATCT [5169-4_84],Kd,"[1]; NapdU at P, 2'-OMe 1,4,6,7,14,15,16,18,20,21",0.0053 nM
same,IC50,"[7]; NapdU at P, 2'-OMe 1,4,6,7,14,15,16,18,20,21, PDGFRb phosphorylation, Hs27",3.3 nM
CGACAGCATGTATGCACATCT [5169-4_85],Kd,"[1]; NapdU at P, 2'-OMe 1,4,6,7,11,14-18,20,21",0.0062 nM
same,IC50,"[7]; NapdU at P, 2'-OMe 1,4,6,7,11,14-18,20,21, PDGFRb phosphorylation, Hs27",7.3 nM
CGACAGCATGTATGCACATCT [5169-4_112],Kd,"[1]; NapdU at P, 2'-OMe 14,16,21",0.0062 nM
same,IC50,"[7]; NapdU at 9,11,13,19, 2'-OMe G14,A16 and 2'-OMe-NapU21, inhibition of PDGFRbeta phosphorylation",1 nM
CGACAGCATGTATGCACATCT [5169-4_188],Ki,"[8]; as 5169-4_146 plus PS 3' of 4,9,10,11,12, 3'-idT, competition with 32P ligand, SB18T, 37 C",0.0086 nM
CGACAGCATGTATGCACATCTCGACAGCATGTATGCACATCT [5169-4_134],Ki,"[8]; Nap-dU, head-to-tail dimer, no linker",0.028 nM
TTACGTTACCGCGTTTATAGCGCCGTTCAAGTGCTTGTAGGATTTAAATGG [4149-8_401 (PDGF_379-HHH-VEGF_192)],Kd,"PDGF-AB; Z BndU, P NapdU, M MBndU, superscript 1 2'-OMe, C3 spacer, Heg linkers, 5'-amine",0.193 nM
same,Kd,"[1]; Z BndU, P NapdU, M MBndU, superscript 1 2'-OMe, C3 spacer, Heg linkers, 5'-amine, Table 20 gives 1.51E-11",0.0056 nM
same,Kd,"[2]; Z BndU, P NapdU, M MBndU, superscript 1 2'-OMe, C3 spacer, Heg linkers, 5'-amine, Table 20 gives 3.74E-11",0.027 nM
same,Kd,"[4]; Z BndU, P NapdU, M MBndU, superscript 1 2'-OMe, C3 spacer, Heg linkers, 5'-amine, Table 20 gives 2.77E-10",0.025 nM
